pKd: −log10 of the molar value.
What was measured:
[1] = target: tumor necrosis factor alpha (TNF-α), R&D Systems 210-TA-005 (UniProt P01375); assay: t-PLA 10X probes, human plasma; TNF-α 1.00E-08 M
[2] = target: tumor necrosis factor alpha (TNF-α), R&D Systems 210-TA-005 (UniProt P01375); assay: c-PLA 1X probes, human plasma; TNF-α 1.00E-08 M
[3] = target: tumor necrosis factor alpha (TNF-α), R&D Systems 210-TA-005 (UniProt P01375); assay: c-PLA 1X probes, buffer; TNF-α 1.00E-08 M
[4] = target: tumor necrosis factor alpha (TNF-α), R&D Systems 210-TA-005 (UniProt P01375); assay: t-PLA, buffer; TNF-α 1.00E-12 M
[5] = target: tumor necrosis factor alpha (TNF-α), R&D Systems 210-TA-005 (UniProt P01375); assay: t-PLA 1X probes, buffer; TNF-α 1.00E-08 M
[6] = target: tumor necrosis factor alpha (TNF-α), R&D Systems 210-TA-005 (UniProt P01375); assay: t-PLA 1X probes, human plasma; TNF-α 1.00E-08 M
[7] = target: tumor necrosis factor alpha (TNF-α), R&D Systems 210-TA-005 (UniProt P01375); assay: t-PLA 1X probes, human plasma; TNF-α 1.00E-11 M
[8] = target: tumor necrosis factor alpha (TNF-α), R&D Systems 210-TA-005 (UniProt P01375); assay: t-PLA 10X probes, buffer; TNF-α 1.00E-09 M
[9] = target: tumor necrosis factor alpha (TNF-α), R&D Systems 210-TA-005 (UniProt P01375); assay: c-PLA, buffer; TNF-α 1.00E-10 M
[10] = target: tumor necrosis factor alpha (TNF-α), R&D Systems 210-TA-005 (UniProt P01375); assay: t-PLA 10X probes, human plasma; TNF-α 1.00E-10 M
[11] = target: tumor necrosis factor alpha (TNF-α), R&D Systems 210-TA-005 (UniProt P01375); assay: c-PLA, buffer; TNF-α 1.00E-09 M
[12] = target: tumor necrosis factor alpha (TNF-α), R&D Systems 210-TA-005 (UniProt P01375); assay: SPR (Biacore T200), biotinylated antibody on CAP chip, 1:1 fit
[13] = target: tumor necrosis factor alpha (TNF-α), R&D Systems 210-TA-005 (UniProt P01375); assay: t-PLA 1X probes, human plasma; TNF-α 1.00E-12 M
[14] = target: tumor necrosis factor alpha (TNF-α), R&D Systems 210-TA-005 (UniProt P01375); assay: c-PLA 1X probes, buffer; TNF-α 5.00E-07 M
[15] = target: tumor necrosis factor alpha (TNF-α), R&D Systems 210-TA-005 (UniProt P01375); assay: c-PLA 10X probes, human plasma; TNF-α 1.00E-11 M
[16] = target: tumor necrosis factor alpha (TNF-α), R&D Systems 210-TA-005 (UniProt P01375); assay: t-PLA 10X probes, human plasma; TNF-α 1.00E-11 M
[17] = target: vascular endothelial growth factor (VEGF), R&D Systems 293-VE-010 (human) (UniProt P15692); assay: c-PLA with preamplification; VEGF 1.00E-14 M
UniProt P15692, sequence (P15692 other isoform, or with tags, fused parts or gaps limits assumed): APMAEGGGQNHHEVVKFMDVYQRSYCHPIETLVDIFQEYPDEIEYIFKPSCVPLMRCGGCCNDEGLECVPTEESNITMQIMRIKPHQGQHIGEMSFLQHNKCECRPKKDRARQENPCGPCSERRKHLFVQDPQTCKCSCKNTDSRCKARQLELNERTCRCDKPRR

[18] = target: vascular endothelial growth factor (VEGF), R&D Systems 293-VE-010 (human) (UniProt P15692); assay: t-PLA, human plasma; VEGF 1.00E-14 M
[19] = target: vascular endothelial growth factor (VEGF), R&D Systems 293-VE-010 (human) (UniProt P15692); assay: c-PLA, buffer; VEGF 1.00E-11 M
[20] = target: vascular endothelial growth factor (VEGF), R&D Systems 293-VE-010 (human) (UniProt P15692); assay: c-PLA, human plasma; VEGF 1.00E-11 M
[21] = target: vascular endothelial growth factor (VEGF), R&D Systems 293-VE-010 (human) (UniProt P15692); assay: SPR, isoaffinity graph
[22] = target: vascular endothelial growth factor (VEGF), R&D Systems 293-VE-010 (human) (UniProt P15692); assay: SPR (Biacore T200), biotinylated antibody on CAP chip, 1:1 fit
[23] = target: vascular endothelial growth factor (VEGF), R&D Systems 293-VE-010 (human) (UniProt P15692); assay: t-PLA with preamplification; VEGF 1.00E-13 M
[24] = target: vascular endothelial growth factor (VEGF), R&D Systems 293-VE-010 (human) (UniProt P15692); assay: c-PLA, chicken plasma; VEGF 1.00E-10 M
[25] = target: vascular endothelial growth factor (VEGF), R&D Systems 293-VE-010 (human) (UniProt P15692); assay: c-PLA, buffer; VEGF 1.00E-09 M
[26] = target: vascular endothelial growth factor (VEGF), R&D Systems 293-VE-010 (human) (UniProt P15692); assay: c-PLA with preamplification; VEGF 1.00E-10 M
[27] = target: vascular endothelial growth factor (VEGF), R&D Systems 293-VE-010 (human) (UniProt P15692); assay: t-PLA, buffer; VEGF 1.00E-11 M
[28] = target: vascular endothelial growth factor (VEGF), R&D Systems 293-VE-010 (human) (UniProt P15692); assay: c-PLA, buffer; VEGF 1.00E-14 M

UniProt P01375, sequence (P01375 77-233 limits assumed): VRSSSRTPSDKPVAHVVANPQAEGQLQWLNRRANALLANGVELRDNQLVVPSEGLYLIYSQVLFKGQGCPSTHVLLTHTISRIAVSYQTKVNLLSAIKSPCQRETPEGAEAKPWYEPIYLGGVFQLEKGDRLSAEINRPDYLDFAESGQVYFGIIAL

For “affinity-purified polyclonal anti-TNF-α antibody (R&D Systems AF-210-NA)”, the Counts [1] was 3.81e+08, the SBR [1] was 33 and the Counts [2] was 4770. It also gave an SBR [2] of 63, a Counts [3] of 11600 and an SBR [3] of 730. For the same substance, the Counts [4] was 1.65e+06, the SBR [4] was 9.7 and the Counts [5] was 5.4e+07. The SBR [5] was 65, the Counts [6] was 1.79e+07 and the SBR [6] was 75. The Counts [7] was 745000, the SBR [7] was 3.1 and the Counts [8] was 3.2e+08. It also gave an SBR [8] of 56, a Counts [9] of 260 and a Counts [10] of 1.44e+07. It also gave an SBR [10] of 1.3, a Counts [11] of 3700 and an SBR [11] of 328. It also gave a pKd [12] of 9.55, a Counts [13] of 154000 and a Counts [14] of 33000. The SBR [14] was 2070, the Counts [15] was 2970 and the SBR [15] was 1.4. For the same substance, the Counts [16] was 4.13e+06.

“affinity-purified polyclonal anti-VEGF antibody (R&D Systems AF-293-NA)” showed a Counts [17] of 90200, an SBR [17] of 1.5 and a Counts [18] of 1.63e+06. For the same substance, the Counts [19] was 4820, the SBR [19] was 162 and the Counts [20] was 1770. For the same substance, the SBR [20] was 6.8, the pKd [21] was over 11.30 and the pKd [22] was 11.44. The Counts [23] was 577000, the SBR [23] was 3.3 and the Counts [24] was 26800. The SBR [24] was 2900, the Counts [25] was 778000 and the SBR [25] was 26200. It also gave a Counts [26] of 6.02e+07, an SBR [26] of 1010 and a Counts [27] of 4.21e+07. For the same substance, the SBR [27] was 122, the Counts [28] was 203 and the SBR [28] was 6.8.

Reference: patent publication US20190360025A1
